The assay deals with KillerOrange. Nature of the assay: crystal structure; KillerOrange; hanging drop vapor diffusion at 20°C; ~22 mg/ml protein in 20 mM Tris pH 8.0, 200 mM NaCl; reservoir 0.02M Na acetate pH 5.0, 1% gamma-PGA, 3% PEG 4K; data at 100 K.

By stoichiometry N is commonly meant the number of molecules, sites or subunits per partner or assembly. Consider KillerOrange, for which the stoichiometry N was determined as 2.

These data come from paper PMC4689385.
